Consider two molecules from paper PMC10197132.

For data set [1], the target named is G3-SEAP (human-secreted embryonic alkaline phosphatase with an N-terminal Gly3 sequence) (human). The data set can be described thus: SEC-MALS. Background: SEC sorts molecules by how far they enter the pores of the column.
In another data set the target is G3-SEAP (human, UniProt P05187). Put plainly: fluorescence polarization.

Molecule “G3-SEAP (human-secreted embryonic alkaline phosphatase with an N-terminal Gly3 sequence) (enzyme)” yielded a stoichiometry N in data set [1] of 2.

B1: FAM-23DR DNA-RNA hybrid (DNA:RNA)
DNA: CGGTGTGGTCGCTGTAATCAGAG
RNA: CUCUGAUUACAGCGACCACACCG
In the case of B1, the binding result with G3-SEAP is reported as “no binding”.

The stoichiometry N is a count of units in the complex or per binding partner.
